Measured values reported in the DeepSol protein solubility set.

assay: soluble on expression in E. coli; label from the status in PepcDB or PDB records

| Sequence | soluble on expression in E. coli |
| --- | --- |
| MSLKVFYMNVVIITGAASGIGHALSQVCLSNGKTIVMVDKNQDKLHTEAQSFMTKFSPEHVICFACDVTQPSEVERLAEYSCKQLGQVDWIFNNAGIIGNLLPAWELQENDINQVMQVNLHGMLNIIRSFMPYLFKQNFRSHIINMASLYALCTGSQMAAYSMSKHAVLALSESLYFDLNRLKKPVDVSVVFPSFTDTSLLASSGKLNHSPIHNQLNNLLAHSRPAIEVAEHIVREVEQKRFYILPDKEVKGYCEDRTKAILLQENPHRNSVEQLMCSLLKRQSSEANEGHHHHHH | soluble |
| MSLKVREEKLRTIIEWSEKNEDVRVLLLTSSLVNPLALVDEFSDLDIEFVFEDNTNYISDKSWTLKFGNPIAMIEEDESCFNHKHAMKMLLYEDGVKVDFKLYSKSKFIKETQEKELPEDWDIGYKILIDKDGITKQMLKPTYQISIIKKPSEKEFQNLINDFWWDTTYVAKCLVRDEIFYAKFMSETVIRTEYLIPLIEWHIASEHNWNITTNKYGRLFKKYLNQEMWAKTEQTFSGSDIKENWTALFSMTDLVSEIGTELSKKLEYKYPDKLENDIRKYLAGLKPKTEGHHHHHH | soluble |
| MSLKVSVIIPTYNERENLEELFSRIDNALQGLNYEIVVVDDDSPDRTWEKAQELSSKYPVKVIRRTKEKGLSSAVIRGFKEASGDVFVVMDADLQHPPEVIPKLIEAIKNGSDIAIGSRYVKGGKVENWPFYRKLISKGAIMVGRIALPKIRDIKDPVSGFFALRKEVVEGVELNPIGFKILMEILIKGKYSKVVEVPFTFGIRARGESKLKGKTIFEYLRHIYRLMKWEGEIDREGHHHHHH | soluble |
| MSLKWSAIPFQTLYRSIESGEFDFDLFKEVLPDLQNLNLNTDKLKNNASRSQLEKGEIELSDGSTFKVNQEFIFEAISLSDELNLDEIVACELILSGDTTANNGKVQYFLRRQYILQIVSFIVNCFHEDTELYQELIKNGALVSNILSAFKFIHTQLSEIKQQINKAQILENYNALFQQNIKFRRDFLLREYDILSQILYGLVDKGAIMKNKDFILSLLHHVSELDSNDFFIIYYTPAFFHLFASLRVLPDADVKLLHSQFMKDLKDDSIYTKPVKVALIFIFFAYFIGWCKEDPKRRADTMDFKTDVDEPMTSAVELGAIEQILIFAADTSIVEQDKSMELFYDIRSLLERHIPRLIPKQLLDDEKIFSQTTNSTYNPASATDNMSGRGLWNPSYPGMMSTTGTARLNSMPNNVNEYSYTTIVLSDQTQEFFLSSFDDVLQTIITDCAFLLTKIKDAEEDSLLSGEDLTLDDISLKADLERFFLSIYFFYASRPEYSCTFWSDKESNAYGFIEWCSRCNDNLMRSCFYLMVSSLSFGPENALNVYHYFGENSSISWKNIAQCLSDYTKKISNFNSSLHKRQQFSESTHNDIDSTAVALEEGLNEEAVIFLSSLLTLVGSVTYQVDEDVKSSLSKVFSDVLFEFTKINTPLVGAAFKVISNLVPKLESSRTKFWSFLDSLIFKDSSLNYSSESYRNAFTNVLTKYSDVLGFLQLFHNLISIHSREGHHHHHH | not soluble |
| MSLKYGGIIMKEILVIAPTKGTYEKSIHIVKKNKYKTIDVVFGNLKEGIPLAEKSINHGTRIIISRGGTYNMLKATYNIPIVEIKVDAYDIIKSYKEVKNSNEPFGIIGFNNVIYGFDIIEEILNKKITMIEIEKEEEIYDAIEKYRKKGINTYIGDTTVAHIVKRLNCKGILIESREENILRAIQQAEQILEATKDEQKRRLQIEAMTDFVHDGIITVDKNFKITLFNKSAEKIFGIKKENALYHNVVDVIPNTVLPQVVETMEPQIGEIQNIGSTKIITNRVPIIVDGQIQGAVSTFQDSKEISSFEHTIRRSLLSKGLSAEGHHHHHH | soluble |
| MSLKYQLRFGGEGGQGVITAGEILAEAAIKEGRQAFKASTYTSQVRGGPTKVDIIIDDKEILFPYAVEGEVDFMLSTADKGYKGFRGGVKEGGIIVVEPNLVHPESEDYKKWQIFEIPIITIAKDEVGNVATQSVVALAIAAYMSKCIDLDVLKETMLHMVPAKTRDANAKAFDLGVKYATQAKPHEGHHHHHH | soluble |
| MSLKYVNKVIVILGASFAGMTCAQKLRQLNPNWDIVLIDKEIHPDYVPNGLNWYYRHEISGLNQAMWQTEEEQRLQNIRCLFGLKVEKINKEDRELMLSDGSSVYYDQLICAMGSQAESTYIDGADAQGVLTTKTYATSQNAKQVLDKSHKVAVVGAGIIGLDIAYSLHESGKAVTLLEAQERPDFRHTDPDMSLPLLDAMAESKLHFFQNQKVEKITVTREEKLCLRTLTGDTFTVDAVILAVNFRPDSRLLTGLVDLSVDNSVVVNDYFQTSDPNIYAIGDLIWSYFKGLNSAYYMPLINQAIRSAQMLAYHLSGHAVPKLKITRATGSKHFGYYRANIGLTELEAGFYEDTVSVTYFPKEQYDLRIKLIANQKTGHLLGAQLISKENCLATANQLVQAISCDMTDFDLAFQDFIYTARESEMAYMLHQAAINLYEKRIGEGHHHHHH | soluble |
| MSLLCLFAVFAFSCNEEMERLLTDDYPESGTEYTTGHVLMVVIDGASGIAVNEAYNTRKAPVIRSMTDKSLFTFYGLADNEEGVSKERGWANLLTGTTKNGLDVNQGIDELETPSFLQRLKEADENLKVSFYSSDTEFFGAFGSVANTKRKTSADSETADALIAEINGETISDIVVAQFGGVQQTGEQYGFWSNETTPTSEVIDAIYNVDAFIGKIMKALEARSRYVQENWLVVITSSYGGVYEGNVTPASEGHHHHHH | soluble |
| MSLLMKGTYCLIINCRGTERRIGSLGTVRFPPGFYVYVGSGFSSLEARIKRHLSSEKRRRWHIDHFLDGAEVECVLYTTDKRRLECAVSEKLHGEKSVRGFGCSDCSCKSHLHHFKNKNDATESVKRAFRELGAEVHEWGIEGHHHHHH | soluble |
| MSLLPTILTVDDEEMIRDLMVTALSREGYRCFQAGSAEEARSVLQNNKIDLAILDIMMPGLSGDDFLKELKVLSPETVVLMVTALSDTETAMKCIHLGAYDYILKPFDIDRVLLTIHNALEKQRLLAENREYQANLEKKVDEQTRQIRMAMEDLNLAYNHTLTALVRALDAREKETGSHSERVMTYTLLLGEAMGVPEKDLSVMARGALLHDIGKVGISDNILLKPAKLDEREWMEMMRHPQLGYEILSGIKFLKGPAEIVFAHHERFDGSGYPKGLSRSGIPLGARIFSLVDTLDAMTSDRPYRKALPFEAVTSEVRRCRGTQFDPEIVDIFLSIPRERWEVVGKRHFIVGEGHHHHHH | not soluble |
| MSLLSKFKRNKHQQHLAQLPKISQSVDDVDFFYTPATFRETLLEKIASATQRICIVALYLEQDDGGKGILDALYAAKRQRPELDVRVLVDWHRAQRGRIGAAASNTNADWYCRLAQENPGIDVPVYGVPINTREALGVLHFKGFIIDDSVLYSGASLNDVYLHQHDKYRYDRYQLIRNRQMADIMFDWVTQNLMNGRGVNRLDNTQRPKSPEIKNDIRLYRQELRDASYHFQGDANDEQLSVTPLVGLGKSSLLNKTIFHLMPCAEHKLTICTPYFNLPAVLVRNIIQLLRDGKKVEIIVGDKTANDFYIPEDEPFKIIGALPYLYEINLRRFLSRLQYYVNTDQLVVRLWKDDDNTYHLKGMWVDDKWMLLTGNNLNPRAWRLDLENAILIHDPKQELAPQREKELELIRTHTTIVKHYRDLQSIADYPIKVRKLIRRLRRIRIDRLISRILEGHHHHHH | soluble |
| MSLLSSEGPIFYVQERIGQNYKPFNCIKFRTMVSNADEVLMQMMETSPQLRQEFESSFKLKKDPRITKIGQFLRITSLDEFPQFWNVLKGDMSVVGPRPLVAEELPKYGDHIEQVLTIRPGITGLWQVSGRNDIPYPRRVQIDLHYVKSRTLWLDLWIILKTIDVVIMPKNNGAYEGHHHHHH | soluble |
| MSLLYKKHSLHNIGRWVTNNSFFRKSGRIAVSTFNVAKFGGTSVANFEAMSRCSAIIENNPQTRLVVSSACSGVTNLLVELANGVASTERRQAILQQLADIHYVIIDQLADPTRVEKEVKAVLDSVASAAEAASFQSSKKLTDHLVACGELISTYILTQLMRERGVDAVRFDIREVLRTDDHYGRAEPQLKEIAQLAKEKLVPLCEQYVVVTQGFIGSDAQGNTTTLGRGGSDYSAALIAEAVQASGLEIWTDVPGIYSTDPRIAPKAAPIPEISFSEASEMANFGAKILHPSTLLPAVRHGIPVFVGSSKEPEKGGTWIRKQVESAPLYRALALRCNQTMVTLRSAQMFHAYGFLAKVFEILAKHKISVDLITTSEISVSLTLDKTDTSGGAPELPEAVRAELEELCTVEVEYNLCLIALIGNKMKESRGYAKQVFSVLEDYNLRMICYGASAHNLCFLLHESVSKQAVQKLHKELFEQEEGHHHHHH | soluble |
| MSLMRDITPDLCDKYESQVTLLNLPLQNFGQRSAFWGEIVTVRCYHDNSKVRDVLSQNGKGKVLVVDGHGSCHKALMGDQLAILAIKNDWEGVIIYGAVRDVVAMSEMDLGIKALGTSPFKTEKRGAGQVNVTLTMQNQIVEPGDYLYADWNGILMSETALDVAEGGSHHHHHH | soluble |
| MSLMSSRVTIFTSCNDAYIYLLREGNSQAFPNAVGSKMVNLNTIPPKNGRDYYIALGLEGSANKLGVGIVKHPLLPKHANSDLSYDCEAEMLSNIRDTYVTPPGEGFLPRDTARHHRNWCIRLIKQALAEADIKSPTLDIDVICFTKGPGMGAPLHSVVIAARTCSLLWDVPLVGVNHCIGHIEMGREITKAQNPVVLYVSGGNTQVIAYSEKRYRIFGETLDIAIGNCLDRFARTLKIPNEPSPGYNIEQLAKKAPHKENLVELPYTVKGMDLSMSGILASIDLLAKDLFKGNKKNKILFDKTTGEQKVTVEDLCYSLQENLFAMLVEITERAMAHVNSNQVLIVGGVGCNVRLQEMMAQMCKDRANGQVHATDNRFCIDNGVMIAQAGLLEYRMGGIVKDFSETVVTQKFRTDEVYAAWRDEGHHHHHH | not soluble |
| MSLNARTNIALLANSSSPLHPLQELLAVAGYQCNVFHAGRDLIQGLGHDTYEMLLIDRELADISAIDVIRTVRAVRNRDVPIVIFASENNDDDLVEALDAGADDYVLRPLAARVLLARIAALRRRMSGTRLRGAMPLRAGPYELSNPGRYATLNGGRIPMTPKEFDLAMLMFANAGRILASRRIEHTIWGHDLPPYSRALAGLVSRMRRTLNLCAENGVTVSVVYAQGYRLDILDEGHHHHHH | not soluble |
| MSLNASPQEDAGPEPVVYLVDDQQAELDLLQRWCSQEGLKTETFNQAEDLLKLLHADSHGCVVADLRMPRLSGLELQAEMSRRELTIPVILVTGHGDAENCRAAFQQGVFDFIEKGFRHEEILHAINSAIRKHRRDRFRHQVRKEALDLLRKISPRETEVMLLLAGGSPLKGIAQELSISVQTASKHRGSIFTKLNIDNEVDLYKMLLAAEVNLDVGEGHHHHHH | soluble |
| MSLNCERVWLNVTPATLRSDLADYGLLEPHALGVHEGRIHALVPMQDLKGPYPAHWQDMKGKLVTPGLIDCHTHLIFAGSRAEEFELRQKGVPYAEIARKGGGIISTVRATRAASEDQLFELALPRVKSLIREGVTTVEIKSGYGLTLEDELKMLRVARRLGEALPIRVKTTLLAAHAVPPEYRDDPDSWVETICQEIIPAAAEAGLADAVDVFCEHIGFSLAQTEQVYLAADQYGLAVKGHMDQLSNLGGSTLAANFGALSVDHLEYLDPEGIQALAHRGVVATLLPTAFYFLKETKLPPVVALRKAGVPMAVSSDINPGTAPIVSLRMAMNMACTLFGLTPVEAMAGVTRHAARALGEQEQLGQLRVGMLADFLVWNCGHPAELSYLIGVDQLVSRVVNGEETLHGEGHHHHHH | soluble |
| MSLNDGRLEIFQEGKPGRRIDEDQVFAAVLDALTKPAEQRTVTVAFREIPPPITAANLDQLGITTLIGVGRSDFTGSAAYRVTNIQAGMRLLHGVLIAPGEEFSFNQTIGRIDRSNGFVEGYAIIQNRTQLEWGGGICQDSTTMFRAAFWAGLPITERWGHSFYISWYDRYAFGPYGDGPGMDATIFTGGPDLKFLNDTGGWLLIQTLVDTHRHLAEVRLYGPDTGRKVLLEGPIITNRTEGHHHHHH | not soluble |
